This note sets out measurements from article PMC11260447, “OptoLacI: optogenetically engineered lactose operon repressor LacI responsive to light instead of IPTG” (Nucleic Acids Research, 2024).

The series concerns the molecule itself. In words: SEC; purified protein incubated 1 hour in the dark, then Superdex 200 Increase 10/300 GL under dark condition; 20 mM Hepes pH 7.5, 200 mM NaCl.

B1: OptoLacI^L (LacI^(W220F, 311-LOV2)) (other, E. coli | Avena sativa, UniProt P03023 1-311, looked up)
chain: MKPVTLYDVAEYAGVSYQTVSRVVNQASHVSAKTREKVEAAMAELNYIPNRVAQQLAGKQSLLIGVATSSLALHAPSQIVAAIKSRADQLGASVVVSMVERSGVEACKAAVHNLLAQRVSGLIINYPLDDQDAIAVEAACTNVPALFLDVSDQTPINSIIFSHEDGTRLGVEHLVALGHQQIALLAGPLSSVSARLRLAGWHKYLTRNQIQPIAEREGDFSAMSGFQQTMQMLNEGIVPTAMLVANDQMALGAMRAITESGLRVGADISVVGYDDTEDSSCYIPPLTTIKQDFRLLGQTSVDRLLQLSQGQLERIEKNFVITDPRLPDNPIIFASDSFLQLTEYSREEILGRNCRFLQGPETDRATVRKIRDAIDNQTEVTVQLINYTKSGKKFWNLFHLQPMRDQKGDVQYFIGVQLDGTEHVRDAAEREGVMLIKKTAENIDEAAAVKGNQLLPVSLVKRKTTLAPNTQTASPRALADSLMQLARQVSRLESGQ
notes: LOV2 domain of Avena sativa phototropin 1 (AsLOV2), residues 408-543; source: E. coli BL21 (DE3), plasmid pML364, purified (Ni-NTA twice, size exclusion chromatography)
Turning to B1, the binding result is “binds”.
